Experimental data: paper PMC8514532 (2021)

Target: PopP2 (149-488), AVI-tagged and biotinylated, the 'WT' of the BLI assay (Ralstonia solanacearum, UniProt Q8Y125 149-488)
Experiment: BLI

B1: WRKY DNA-binding domain of the Arabidopsis RRS1-R immune receptor (domain or fragment)
chain: SESKVKKVVSIPAIDEGDLWTWRKYGQKDILGSRFPRGYYRCAYKFTHGCKATKQVQRSETDSNMLAITYLSEHNHPRPT
Kd: 13 nM
